From paper PMC3201875 come the findings set out here.

Experiment [1] deals with SBP-tagged LeishIF4E-4. Kind of experiment: pull-down.
Experiment [2] has as its target SBP-tagged LeishIF4E-1. Nature of the experiment: pull-down.

Take LeishIF4A-1 (natural protein): the percent of the total protein in the elution fraction in experiment [1] was 3.4%; in experiment [2] it was 3%. As for LeishIF4G-3 (natural protein), the percent of the total protein in the elution fraction in experiment [1] was found to be 9%. Take “Leishmania 4E-Interacting Protein (Leish4E-IP) (natural protein)”: in experiment [2], the percent of the total protein in the elution fraction turned out to be 14%.
